Data as given in patent publication US20080181901A1.

Molecular target: endogenous Na,K-ATPase of tsA201 cells
Assay: cell-based or functional assay

decrease in endogenous ouabain-sensitive 86Rb+ uptake into intact tsA201 cells: 19%
Substance: full-length MONaKA transfected into tsA201 cells (86Rb+ uptake assay)
